Test results reported in PMC10925063, “FUS unveiled in mitochondrial DNA repair and targeted ligase-1 expression rescues repair-defects in FUS-linked motor neuron disease” (Nature Communications, 2024).

B1: Fused in Sarcoma (FUS), endogenous wild type (natural protein, UniProt P35637 1-526, looked up)
chain: MASNDYTQQATQSYGAYPTQPGQGYSQQSSQPYGQQSYSGYSQSTDTSGYGQSSYSSYGQSQNTGYGTQSTPQGYGSTGGYGSSQSSQSSYGQQSSYPGYGQQPAPSSTSGSYGSSSQSSSYGQPQSGSYSQQPSYGGQQQSYGQQQSYNPPQGYGQQNQYNSSSGGGGGGGGGGNYGQDQSSMSSGGGSGGGYGNQDQSGGGGSGGYGQQDRGGRGRGGSGGGGGGGGGGYNRSSGGYEPRGRGGGRGGRGGMGGSDRGGFNKFGGPRDQGSRHDSEQDNSDNNTIFVQGLGENVTIESVADYFKQIGIIKTNKKTGQPMINLYTDRETGKLKGEATVSFDDPPSAKAAIDWFDGKEFSGNPIKVSFATRRADFNRGGGNGRGGRGRGGPMGRGGYGGGGSGGGGRGGFPSGGGGGGGQQRAGDWKCPNPTCENMNFSWRNECNQCKAPKPDGPGGGPGGSHMGGNYGDDRRGGRGGYDRGGYRGRGGDRGGFRGGRGGGDRGGFGPGKMDSRGEHRQDRRERPY
notes: Fused in Sarcoma (FUS), human, endogenous wild type; also called FUS WT; WT FUS; source: endogenous, in HEK293 cells, control fibroblasts, iPSC-derived motor neurons and NPSCs
B2: FUS P525L, endogenous mutant of ALS patient-derived cells (natural protein, UniProt P35637 1-526, looked up)
chain: MASNDYTQQATQSYGAYPTQPGQGYSQQSSQPYGQQSYSGYSQSTDTSGYGQSSYSSYGQSQNTGYGTQSTPQGYGSTGGYGSSQSSQSSYGQQSSYPGYGQQPAPSSTSGSYGSSSQSSSYGQPQSGSYSQQPSYGGQQQSYGQQQSYNPPQGYGQQNQYNSSSGGGGGGGGGGNYGQDQSSMSSGGGSGGGYGNQDQSGGGGSGGYGQQDRGGRGRGGSGGGGGGGGGGYNRSSGGYEPRGRGGGRGGRGGMGGSDRGGFNKFGGPRDQGSRHDSEQDNSDNNTIFVQGLGENVTIESVADYFKQIGIIKTNKKTGQPMINLYTDRETGKLKGEATVSFDDPPSAKAAIDWFDGKEFSGNPIKVSFATRRADFNRGGGNGRGGRGRGGPMGRGGYGGGGSGGGGRGGFPSGGGGGGGQQRAGDWKCPNPTCENMNFSWRNECNQCKAPKPDGPGGGPGGSHMGGNYGDDRRGGRGGYDRGGYRGRGGDRGGFRGGRGGGDRGGFGPGKMDSRGEHRQDRRERLY
notes: Fused in Sarcoma (FUS), human, with the ALS patient mutation P525L; source: endogenous, in ALS patient-derived fibroblasts, iPSC-derived motor neurons and NPSCs
B3: FUS R521H, endogenous mutant of ALS patient-derived cells (natural protein, UniProt P35637 1-526, looked up)
chain: MASNDYTQQATQSYGAYPTQPGQGYSQQSSQPYGQQSYSGYSQSTDTSGYGQSSYSSYGQSQNTGYGTQSTPQGYGSTGGYGSSQSSQSSYGQQSSYPGYGQQPAPSSTSGSYGSSSQSSSYGQPQSGSYSQQPSYGGQQQSYGQQQSYNPPQGYGQQNQYNSSSGGGGGGGGGGNYGQDQSSMSSGGGSGGGYGNQDQSGGGGSGGYGQQDRGGRGRGGSGGGGGGGGGGYNRSSGGYEPRGRGGGRGGRGGMGGSDRGGFNKFGGPRDQGSRHDSEQDNSDNNTIFVQGLGENVTIESVADYFKQIGIIKTNKKTGQPMINLYTDRETGKLKGEATVSFDDPPSAKAAIDWFDGKEFSGNPIKVSFATRRADFNRGGGNGRGGRGRGGPMGRGGYGGGGSGGGGRGGFPSGGGGGGGQQRAGDWKCPNPTCENMNFSWRNECNQCKAPKPDGPGGGPGGSHMGGNYGDDRRGGRGGYDRGGYRGRGGDRGGFRGGRGGGDRGGFGPGKMDSRGEHRQDHRERPY
notes: Fused in Sarcoma (FUS), human, with the ALS patient mutation R521H; source: endogenous, in ALS patient-derived fibroblasts and iPSC-derived motor neurons

How the values were obtained:
Settings in all cases: partners not purified
Tom20 [1] = target: T1, Tom20 (human (endogenous in fibroblasts and …, UniProt Q15388 1-145)); test: proximity ligation; Duolink in situ PLA on fixed, permeabilised control and patient iPSC-derived motor neurons (Fig. 1e, 4e); with or without GO; MitoTracker green counterstain; foci counted in 25 cells
T1 construct: Tom20, mitochondria-specific marker, human, endogenous; source: endogenous, in fibroblasts and iPSC-derived motor neurons
T1 sequence (looked up): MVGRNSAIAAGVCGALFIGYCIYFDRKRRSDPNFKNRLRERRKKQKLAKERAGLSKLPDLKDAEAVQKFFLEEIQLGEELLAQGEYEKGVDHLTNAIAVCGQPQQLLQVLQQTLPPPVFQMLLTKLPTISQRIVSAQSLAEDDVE

HSP60 = target: T2, HSP60 (human (endogenous in fibroblasts and …, UniProt P10809 27-573)); test: proximity ligation; Duolink in situ PLA on fixed, permeabilised cells with anti-FUS and anti-Tom20 or anti-HSP60; patient derived fibroblasts and motor neurons (Fig. 1c, d; the panel's cell type is not told); untreated or glucose oxidase (GO)
T2 construct: HSP60, mitochondria-specific marker, human, endogenous; source: endogenous, in fibroblasts and motor neurons
T2 sequence (P10809 27-573): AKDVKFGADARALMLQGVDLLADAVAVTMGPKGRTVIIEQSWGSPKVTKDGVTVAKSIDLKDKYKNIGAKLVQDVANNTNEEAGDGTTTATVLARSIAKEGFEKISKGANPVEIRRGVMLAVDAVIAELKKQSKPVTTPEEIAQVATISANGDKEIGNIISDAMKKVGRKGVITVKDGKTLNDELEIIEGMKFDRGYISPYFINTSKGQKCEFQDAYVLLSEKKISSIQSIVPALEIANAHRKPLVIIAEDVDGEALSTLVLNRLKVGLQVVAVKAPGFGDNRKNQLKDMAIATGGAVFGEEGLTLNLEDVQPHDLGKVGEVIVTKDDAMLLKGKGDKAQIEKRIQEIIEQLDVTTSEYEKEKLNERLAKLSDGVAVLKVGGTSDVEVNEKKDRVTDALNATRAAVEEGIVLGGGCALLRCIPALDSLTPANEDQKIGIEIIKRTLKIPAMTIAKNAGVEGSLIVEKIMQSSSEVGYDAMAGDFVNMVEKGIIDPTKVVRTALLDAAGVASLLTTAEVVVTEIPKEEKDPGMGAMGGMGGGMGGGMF

Tom20 [2] = target: T1, Tom20; test: as above
[3] = target: B1; test: proximity ligation; Duolink in situ PLA on fixed, permeabilised control and patient iPSC-derived motor neurons (Fig. 1e, 4e); with or without GO; MitoTracker green counterstain; foci counted in 25 cells
[4] = target: B2; test: as above
[5] = target: B3; test: as above

Binder: B1
- PLA foci, median (GO) (Tom20 [1]): 4 PLA foci
- PLA foci, median (untreated) (Tom20 [1]): 1 PLA foci
- PLA foci, median (GO) (HSP60): 36 PLA foci
- PLA foci, median (untreated) (HSP60): 12 PLA foci
- PLA foci, median (untreated) (Tom20 [2]): 24 PLA foci

Binder: B2
- PLA foci, median (GO) (Tom20 [1]): 13 PLA foci
- PLA foci, median (untreated) (Tom20 [1]): 4 PLA foci
- PLA foci, median (GO) (HSP60): 64 PLA foci
- PLA foci, median (untreated) (HSP60): 51 PLA foci
- PLA foci, median (untreated) (Tom20 [2]): 218 PLA foci

Binder: B3
- PLA foci, median (GO) (Tom20 [1]): 9 PLA foci
- PLA foci, median (untreated) (Tom20 [1]): 4 PLA foci
- PLA foci, median (GO) (HSP60): 56 PLA foci
- PLA foci, median (untreated) (HSP60): 27 PLA foci
- PLA foci, median (untreated) (Tom20 [2]): 89 PLA foci

B4: mtDNA Ligase IIIα (mtLig3) (enzyme, UniProt P49916 43-1009, looked up)
chain: LLHGHPLFLRRKPVLSFQGSHLRSRATYLVFLPGLHVGLCSGPCEMAEQRFCVDYAKRGTAGCKKCKEKIVKGVCRIGKVVPNPFSESGGDMKEWYHIKCMFEKLERARATTKKIEDLTELEGWEELEDNEKEQITQHIADLSSKAAGTPKKKAVVQAKLTTTGQVTSPVKGASFVTSTNPRKFSGFSAKPNNSGEAPSSPTPKRSLSSSKCDPRHKDCLLREFRKLCAMVADNPSYNTKTQIIQDFLRKGSAGDGFHGDVYLTVKLLLPGVIKTVYNLNDKQIVKLFSRIFNCNPDDMARDLEQGDVSETIRVFFEQSKSFPPAAKSLLTIQEVDEFLLRLSKLTKEDEQQQALQDIASRCTANDLKCIIRLIKHDLKMNSGAKHVLDALDPNAYEAFKASRNLQDVVERVLHNAQEVEKEPGQRRALSVQASLMTPVQPMLAEACKSVEYAMKKCPNGMFSEIKYDGERVQVHKNGDHFSYFSRSLKPVLPHKVAHFKDYIPQAFPGGHSMILDSEVLLIDNKTGKPLPFGTLGVHKKAAFQDANVCLFVFDCIYFNDVSLMDRPLCERRKFLHDNMVEIPNRIMFSEMKRVTKALDLADMITRVIQEGLEGLVLKDVKGTYEPGKRHWLKVKKDYLNEGAMADTADLVVLGAFYGQGSKGGMMSIFLMGCYDPGSQKWCTVTKCAGGHDDATLARLQNELDMVKISKDPSKIPSWLKVNKIYYPDFIVPDPKKAAVWEITGAEFSKSEAHTADGISIRFPRCTRIRDDKDWKSATNLPQLKELYQLSKEKADFTVVAGDEGSSTTGGSSEENKGPSGSAVSRKAPSKPSASTKKAEGKLSNSNSKDGNMQTAKPSAMKVGEKLATKSSPVKVGEKRKAADETLCQTKVLLDIFTGVRLYLPPSTPDFSRLRRYFVAFDGDLVQEFDMTSATHVLGSRDKNPAAQQVSPEWIWACIRKRRLVAPC
notes: DNA ligase IIIα, human, endogenous; also called LigIII; mitochondrial version of Lig3; source: endogenous, in HEK293 cells, fibroblasts, iPSC-derived motor neurons and NPSCs
- PLA foci, median (GO) [3]: 8 PLA foci
- PLA foci, median (GO) [4]: 2 PLA foci
- PLA foci, median (GO) [5]: 4 PLA foci
